Results on two molecules are retold here after paper PMC2650403.

Assay [1] concerns the target Werner syndrome protein (WRN), recombinant His6-tagged, wild type (human) (UniProt Q14191).
In assay [2] the target is WRN-E84A, full-length WRN with the N-terminal exonuclease inactivating mutation E84 to alanine (human) (UniProt Q14191).

Regarding “Recombinant human replication protein A (RPA) (complex)”, the radiometric DNA helicase assay, percent unwinding of a telomeric-repeat substrate lacking the 3′-ss tail by WRN (3 nM) with RPA 6 to 24 nM in assay [1] turned out to be 22%.

B1: Protector of telomeres 1, variant 1 (POT1v1) (natural protein)
chain: MSLVPATNYIYTPLNQLKGGTIVNVYGVVKFFKPPYLSKGTDYCSVVTIVDQTNVKLTCLLFSGNYEALPIIYKNGDIVRFHRLKIQVYKKETQGITSSGFASLTFEGTLGAPIIPRTSSKYFNFTTEDHKMVEALRVWASTHMSPSWTLLKLCDVQPMQYFDLTCQLLGKAEVDGASFLLKVWDGTRTPFPSWRVLIQDLVLEGDLSHIHRLQNLTIDILVYDNHVHVARSLKVGSFLRIYSLHTKLQSMNSENQTMLSLEFHLHGGTSYGRGIRVLPESNSDVDQLKKDLESANLTANQHSDVICQSEPDDSFPSSGSVSLYEVERCQQLSATILTDHQYLERTPLCAILKQKAPQQYRIRAKLRSYKPRRLFQSVKLHCPKCHLLQEVPHEGDLDIIFQDGATKTPDVKLQNTSLYDSKIWTTKNQKGRKVAVHFVKNNGILPLSNECLLLIEGGTLSEICKLSNKFNSVIPVRSGHEDLELLDLSAPFLIQGTIHHYGCKQCSSLRSIQNLNSLVDKTSWIPSSVAEALGIVPLQYVFVMTFTLDDGTGVLEAYLMDSDKFFQIPASEVLMDDDLQKSVDMIMDMFCPPGIKIDAYPWLECFIKSYNVTNGTDNQICYQIFDTTVAEDVI
As to B1, the radiometric DNA helicase assay, increase in unwound product of a 30-nt gap telomeric substrate pre-bound with POT1v1 (6 to 48 nM), WRN-E84A 6 nM; value at the 1:8 ratio of WRN-E84A to POT1v1 in assay [2] was found to be 10%.
